Data from US20190153108A1 (AbbVie / Abbott, published 2019).

Target: human Epidermal Growth Factor Receptor (huEGFR) over-expressed in mcl-1-/- mouse embryonic fibroblasts (human, UniProt P00533 25-1210)
Assay: cell-based or functional assay

Binder | huEGFR^+ mcl-1^-/- MEF EC50 [nM]
AbB-CZ (antibody, V domains shown, synthon CZ on reduced interchain Cys) VH: EVQLQESGPGLVKPSQTLSLTCTVSGYSISNDFAWNWIRQPPGKGLEWMGYISYKGNTRYQPSLKSRITISRDTSKNQFFLKLNSVTAADTATYYCVTASRGFPWWGQGTLVTVSS VL: DIQMTQSPSSMSVSVGDRVTITCHSSQDINSNIGWLQQKPGKSFKGLIYHGTNLDDGVPSRFSGSGSGTDYTLTISSLQPEDFATYYCVQYAQFPWTFGGGTKLEIKR | 5.9
AbB-TV (antibody, V domains shown, synthon TV on reduced interchain Cys) VH: EVQLQESGPGLVKPSQTLSLTCTVSGYSISNDFAWNWIRQPPGKGLEWMGYISYKGNTRYQPSLKSRITISRDTSKNQFFLKLNSVTAADTATYYCVTASRGFPWWGQGTLVTVSS VL: DIQMTQSPSSMSVSVGDRVTITCHSSQDINSNIGWLQQKPGKSFKGLIYHGTNLDDGVPSRFSGSGSGTDYTLTISSLQPEDFATYYCVQYAQFPWTFGGGTKLEIKR | 2.4
AbG-TV (antibody, V domains shown, synthon TV on reduced interchain Cys) VH: EVQLQESGPGLVKPSQTLSLTCTVSGYSISNDFAWNWIRQLPGKGLEWMGYISYKGNTRYQPSLKSRITISRDTSKNQFFLKLNSVTAADTATYYCVTASRGLPYWGQGTLVTVSS VL: DIQMTQSPSSMSVSVGDRVTITCHSSQDITYNIGWLQQKPGKSFKGLIYHGANLDDGVPSRFSGSGSGTDYTLTISSLQPEDFATYYCVQYDEFPWTFGGGTKLEIKR | 2.6
AbG-AAA (antibody, V domains shown, synthon AAA on reduced interchain Cys) VH: EVQLQESGPGLVKPSQTLSLTCTVSGYSISNDFAWNWIRQLPGKGLEWMGYISYKGNTRYQPSLKSRITISRDTSKNQFFLKLNSVTAADTATYYCVTASRGLPYWGQGTLVTVSS VL: DIQMTQSPSSMSVSVGDRVTITCHSSQDITYNIGWLQQKPGKSFKGLIYHGANLDDGVPSRFSGSGSGTDYTLTISSLQPEDFATYYCVQYDEFPWTFGGGTKLEIKR | 220
AbG-CZ (antibody, V domains shown, synthon CZ on reduced interchain Cys) VH: EVQLQESGPGLVKPSQTLSLTCTVSGYSISNDFAWNWIRQLPGKGLEWMGYISYKGNTRYQPSLKSRITISRDTSKNQFFLKLNSVTAADTATYYCVTASRGLPYWGQGTLVTVSS VL: DIQMTQSPSSMSVSVGDRVTITCHSSQDITYNIGWLQQKPGKSFKGLIYHGANLDDGVPSRFSGSGSGTDYTLTISSLQPEDFATYYCVQYDEFPWTFGGGTKLEIKR | 3.4
AbG-TX (antibody, V domains shown, synthon TX on reduced interchain Cys) VH: EVQLQESGPGLVKPSQTLSLTCTVSGYSISNDFAWNWIRQLPGKGLEWMGYISYKGNTRYQPSLKSRITISRDTSKNQFFLKLNSVTAADTATYYCVTASRGLPYWGQGTLVTVSS VL: DIQMTQSPSSMSVSVGDRVTITCHSSQDITYNIGWLQQKPGKSFKGLIYHGANLDDGVPSRFSGSGSGTDYTLTISSLQPEDFATYYCVQYDEFPWTFGGGTKLEIKR | 5.3
AbA-TX (antibody, V domains shown, synthon TX on reduced interchain Cys) VH: EVQLQESGPGLVKPSQTLSLTCTVSGYSISRDFAWNWIRQPPGKGLEWMGYISYNGNTRYQPSLKSRITISRDTSKNQFFLKLNSVTAADTATYYCVTASRGFPYWGQGTLVTVSS VL: DIQMTQSPSSMSVSVGDRVTITCHSSQDINSNIGWLQQKPGKSFKGLIYHGTNLDDGVPSRFSGSGSGTDYTLTISSLQPEDFATYYCVQYAQFPWTFGGGTKLEIKR | 16
AbB-TX (antibody, V domains shown, synthon TX on reduced interchain Cys) VH: EVQLQESGPGLVKPSQTLSLTCTVSGYSISNDFAWNWIRQPPGKGLEWMGYISYKGNTRYQPSLKSRITISRDTSKNQFFLKLNSVTAADTATYYCVTASRGFPWWGQGTLVTVSS VL: DIQMTQSPSSMSVSVGDRVTITCHSSQDINSNIGWLQQKPGKSFKGLIYHGTNLDDGVPSRFSGSGSGTDYTLTISSLQPEDFATYYCVQYAQFPWTFGGGTKLEIKR | 11
AbB-YY (antibody, V domains shown, synthon YY on reduced interchain Cys) VH: EVQLQESGPGLVKPSQTLSLTCTVSGYSISNDFAWNWIRQPPGKGLEWMGYISYKGNTRYQPSLKSRITISRDTSKNQFFLKLNSVTAADTATYYCVTASRGFPWWGQGTLVTVSS VL: DIQMTQSPSSMSVSVGDRVTITCHSSQDINSNIGWLQQKPGKSFKGLIYHGTNLDDGVPSRFSGSGSGTDYTLTISSLQPEDFATYYCVQYAQFPWTFGGGTKLEIKR | 51
AbK-CZ (antibody, V domains shown, synthon CZ on reduced interchain Cys) VH: EVQLQESGPGLVKPSQTLSLTCTVSGYSISRDFAWNWIRQPPGKGLEWMGYISYNGNTRYQPSLKSRITISRDTSKNQFFLKLNSVTAADTATYYCVTASRGFPWWGQGTLVTVSS VL: DIQMTQSPSSMSVSVGDRVTITCHSSQDITYNVGWLQQKPGKSFKGLIYHGSNLDHGVPSRFSGSGSGTDYTLTISSLQPEDFATYYCVQYDDFPWTFGGGTKLEIKR | 0.1
AbB-AAD (antibody, V domains shown, synthon AAD on reduced interchain Cys) VH: EVQLQESGPGLVKPSQTLSLTCTVSGYSISNDFAWNWIRQPPGKGLEWMGYISYKGNTRYQPSLKSRITISRDTSKNQFFLKLNSVTAADTATYYCVTASRGFPWWGQGTLVTVSS VL: DIQMTQSPSSMSVSVGDRVTITCHSSQDINSNIGWLQQKPGKSFKGLIYHGTNLDDGVPSRFSGSGSGTDYTLTISSLQPEDFATYYCVQYAQFPWTFGGGTKLEIKR | 4.6
AbG-AAD (antibody, V domains shown, synthon AAD on reduced interchain Cys) VH: EVQLQESGPGLVKPSQTLSLTCTVSGYSISNDFAWNWIRQLPGKGLEWMGYISYKGNTRYQPSLKSRITISRDTSKNQFFLKLNSVTAADTATYYCVTASRGLPYWGQGTLVTVSS VL: DIQMTQSPSSMSVSVGDRVTITCHSSQDITYNIGWLQQKPGKSFKGLIYHGANLDDGVPSRFSGSGSGTDYTLTISSLQPEDFATYYCVQYDEFPWTFGGGTKLEIKR | 108
AbA-AAD (antibody, V domains shown, synthon AAD on reduced interchain Cys) VH: EVQLQESGPGLVKPSQTLSLTCTVSGYSISRDFAWNWIRQPPGKGLEWMGYISYNGNTRYQPSLKSRITISRDTSKNQFFLKLNSVTAADTATYYCVTASRGFPYWGQGTLVTVSS VL: DIQMTQSPSSMSVSVGDRVTITCHSSQDINSNIGWLQQKPGKSFKGLIYHGTNLDDGVPSRFSGSGSGTDYTLTISSLQPEDFATYYCVQYAQFPWTFGGGTKLEIKR | 65
AbG-YY (antibody, V domains shown, synthon YY on reduced interchain Cys) VH: EVQLQESGPGLVKPSQTLSLTCTVSGYSISNDFAWNWIRQLPGKGLEWMGYISYKGNTRYQPSLKSRITISRDTSKNQFFLKLNSVTAADTATYYCVTASRGLPYWGQGTLVTVSS VL: DIQMTQSPSSMSVSVGDRVTITCHSSQDITYNIGWLQQKPGKSFKGLIYHGANLDDGVPSRFSGSGSGTDYTLTISSLQPEDFATYYCVQYDEFPWTFGGGTKLEIKR | > 500

Other lines, results leading:

huEGFR^+ mcl-1^-/- MEF EC50 [nM] | Binder
0.2 | AbK-ZT (antibody, V domains shown, synthon ZT on reduced interchain Cys) VH: EVQLQESGPGLVKPSQTLSLTCTVSGYSISRDFAWNWIRQPPGKGLEWMGYISYNGNTRYQPSLKSRITISRDTSKNQFFLKLNSVTAADTATYYCVTASRGFPWWGQGTLVTVSS VL: DIQMTQSPSSMSVSVGDRVTITCHSSQDITYNVGWLQQKPGKSFKGLIYHGSNLDHGVPSRFSGSGSGTDYTLTISSLQPEDFATYYCVQYDDFPWTFGGGTKLEIKR
8.9 | AbK-SR (antibody, V domains shown, synthon SR on reduced interchain Cys) VH: EVQLQESGPGLVKPSQTLSLTCTVSGYSISRDFAWNWIRQPPGKGLEWMGYISYNGNTRYQPSLKSRITISRDTSKNQFFLKLNSVTAADTATYYCVTASRGFPWWGQGTLVTVSS VL: DIQMTQSPSSMSVSVGDRVTITCHSSQDITYNVGWLQQKPGKSFKGLIYHGSNLDHGVPSRFSGSGSGTDYTLTISSLQPEDFATYYCVQYDDFPWTFGGGTKLEIKR
0.6 | AbK-XW (antibody, V domains shown, synthon XW on reduced interchain Cys) VH: EVQLQESGPGLVKPSQTLSLTCTVSGYSISRDFAWNWIRQPPGKGLEWMGYISYNGNTRYQPSLKSRITISRDTSKNQFFLKLNSVTAADTATYYCVTASRGFPWWGQGTLVTVSS VL: DIQMTQSPSSMSVSVGDRVTITCHSSQDITYNVGWLQQKPGKSFKGLIYHGSNLDHGVPSRFSGSGSGTDYTLTISSLQPEDFATYYCVQYDDFPWTFGGGTKLEIKR
0.79 | AbK-TX (antibody, V domains shown, synthon TX on reduced interchain Cys) VH: EVQLQESGPGLVKPSQTLSLTCTVSGYSISRDFAWNWIRQPPGKGLEWMGYISYNGNTRYQPSLKSRITISRDTSKNQFFLKLNSVTAADTATYYCVTASRGFPWWGQGTLVTVSS VL: DIQMTQSPSSMSVSVGDRVTITCHSSQDITYNVGWLQQKPGKSFKGLIYHGSNLDHGVPSRFSGSGSGTDYTLTISSLQPEDFATYYCVQYDDFPWTFGGGTKLEIKR
45 | AbK-ZZ (antibody, V domains shown, synthon ZZ on reduced interchain Cys) VH: EVQLQESGPGLVKPSQTLSLTCTVSGYSISRDFAWNWIRQPPGKGLEWMGYISYNGNTRYQPSLKSRITISRDTSKNQFFLKLNSVTAADTATYYCVTASRGFPWWGQGTLVTVSS VL: DIQMTQSPSSMSVSVGDRVTITCHSSQDITYNVGWLQQKPGKSFKGLIYHGSNLDHGVPSRFSGSGSGTDYTLTISSLQPEDFATYYCVQYDDFPWTFGGGTKLEIKR
37 | AbK-YG (antibody, V domains shown, synthon YG on reduced interchain Cys) VH: EVQLQESGPGLVKPSQTLSLTCTVSGYSISRDFAWNWIRQPPGKGLEWMGYISYNGNTRYQPSLKSRITISRDTSKNQFFLKLNSVTAADTATYYCVTASRGFPWWGQGTLVTVSS VL: DIQMTQSPSSMSVSVGDRVTITCHSSQDITYNVGWLQQKPGKSFKGLIYHGSNLDHGVPSRFSGSGSGTDYTLTISSLQPEDFATYYCVQYDDFPWTFGGGTKLEIKR
224 | AbK-KZ (antibody, V domains shown, synthon KZ on reduced interchain Cys) VH: EVQLQESGPGLVKPSQTLSLTCTVSGYSISRDFAWNWIRQPPGKGLEWMGYISYNGNTRYQPSLKSRITISRDTSKNQFFLKLNSVTAADTATYYCVTASRGFPWWGQGTLVTVSS VL: DIQMTQSPSSMSVSVGDRVTITCHSSQDITYNVGWLQQKPGKSFKGLIYHGSNLDHGVPSRFSGSGSGTDYTLTISSLQPEDFATYYCVQYDDFPWTFGGGTKLEIKR
161 | AbK-SE (antibody, V domains shown, synthon SE on reduced interchain Cys) VH: EVQLQESGPGLVKPSQTLSLTCTVSGYSISRDFAWNWIRQPPGKGLEWMGYISYNGNTRYQPSLKSRITISRDTSKNQFFLKLNSVTAADTATYYCVTASRGFPWWGQGTLVTVSS VL: DIQMTQSPSSMSVSVGDRVTITCHSSQDITYNVGWLQQKPGKSFKGLIYHGSNLDHGVPSRFSGSGSGTDYTLTISSLQPEDFATYYCVQYDDFPWTFGGGTKLEIKR
